{"source": "patent US9823254B2", "about": "“Reversible chemoenzymatic labeling of native and fusion carrier protein motifs” (The Regents of the University of California, priority 2012, dated 2017)", "molecules": {"B1": {"name": "PaAcpH: acyl carrier protein hydrolase (AcpH) from P. aeruginosa PAO1, NP13 253043.1 (protein)", "chain": "MNYLAHLHLGGPQPAQLLGSLYGDFVKGRLQGQWPDEIERAIQLHRRIDAFTDSHPLVHAAKRRFPLERRRFAGVLLDVFFDHCLARDWNDYADEPLPQFVERVYGTLRTASPLPERLARIAPRMAAQDWLGSYREFAVLREVLGGMSRRLSRPHLLDGSWEELAQRYDDLSADFRAFYPQLQAFALSQR"}}, "key": {"YbbR13": {"system": "YbbR13", "experiment": "AcpH activity with modified ybbR peptide, qualitative", "assay_type": "biochemical", "conditions": "coumarin-PPant labeled"}, "A. orientalis CepK": {"system": "A. orientalis CepK", "experiment": "AcpH qualitative CP activity, gel-based, crypto-CP", "assay_type": "biochemical", "conditions": "NRPS; crypto-CP (coumarin-PPant), overnight, 37° C., 1 μM AcpH"}, "G. fujikuroi Pks4": {"system": "G. fujikuroi Pks4", "experiment": "AcpH qualitative CP activity, gel-based, crypto-CP", "assay_type": "biochemical", "conditions": "PKS; crypto-CP (coumarin-PPant), overnight, 37° C., 1 μM AcpH", "procedure": "(§1) Unless otherwise noted, all coumarin-PPant labeling proceeded as follows: apo-carrier protein or peptide at 50-200 μM were labeled in 50 mM Na-HEPES pH 7.5, 10 mM MgCl2, 8 mM ATP, 0.1 μM MBP-CoaA/D/E, 0.1 μM native Sfp, and 1.1 equivalents of coumarin-pantetheine at 37° C. overnight. Crypto-protein samples were repurified using standard IMAC techniques in pH 8 lysis buffer with Ni-NTA resin, and spin-concentrated/buffer exchanged to remove imidazole and concentrate with 0.5 mL 3 kDa MWCO cellulose filters. Crypto-peptide samples were purified with HPLC, lyophilized, and redissolved in 50 mM TrisCl pH 8.0 prior to analysis.\n(§2) Following AcpH treatment, an equal volume of 2×SDS-PAGE loading dye was added to crypto-carrier proteins samples and heated 5 min at 90° C., and run on 12% or 15% SDS-PAGE. Gels were fixed in 50/40/10% water/methanol/acetic acid for 30 minutes, and washed with water three times before UV imaging. Holo-carrier protein reactions were analyzed with Urea-PAGE as previously described.^6 All protein gels were Coomassie stained for evaluating total protein. Crypto-peptides were evaluated on Urea-PAGE, and were imaged immediately after running with no gel fixing."}, "L majuscula JamF": {"system": "L majuscula JamF", "experiment": "AcpH qualitative CP activity, gel-based, crypto-CP", "assay_type": "biochemical", "conditions": "PKS; crypto-CP (coumarin-PPant), overnight, 37° C., 1 μM AcpH"}, "S. oneidensis AcpP": {"system": "S. oneidensis AcpP", "experiment": "AcpH qualitative CP activity, holo-SoAcpP, Urea-PAGE", "assay_type": "biochemical", "conditions": "FAS, Urea-PAGE gel-shift, shorter timescale", "procedure": "as §1, §2"}, "crypto-FITC-YbbR (3)": {"target": "T1, crypto-FITC-YbbR (3) (Bacillus subtilis, UniProt O34659)", "T1 construct": "made in house; host or cells: enzymatic labelling of FITC-ybbR peptide with Sfp and rhodamine-CoA", "T1 sequence (O34659 whole entry, looked up)": "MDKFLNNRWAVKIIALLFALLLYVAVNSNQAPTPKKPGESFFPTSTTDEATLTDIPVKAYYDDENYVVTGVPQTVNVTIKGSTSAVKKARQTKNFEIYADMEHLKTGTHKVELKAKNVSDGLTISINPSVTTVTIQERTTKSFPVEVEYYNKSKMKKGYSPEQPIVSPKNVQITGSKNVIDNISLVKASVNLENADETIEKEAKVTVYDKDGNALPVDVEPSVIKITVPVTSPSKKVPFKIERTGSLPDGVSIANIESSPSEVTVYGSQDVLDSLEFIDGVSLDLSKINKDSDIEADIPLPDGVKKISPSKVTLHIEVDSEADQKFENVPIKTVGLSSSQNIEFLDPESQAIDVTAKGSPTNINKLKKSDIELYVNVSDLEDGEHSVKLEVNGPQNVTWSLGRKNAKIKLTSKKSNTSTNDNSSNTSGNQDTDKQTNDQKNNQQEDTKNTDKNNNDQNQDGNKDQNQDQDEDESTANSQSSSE", "experiment": "FRET-quench microwell AcpH kinetics", "assay_type": "biochemical", "conditions": "37° C., FRET-quench microwell plate assay, [AcpH] 1 μm", "description": "Preparation of rhodamine-labeled FITC-ybbR proceeded via reaction of 200 μM FITC-ybbR with 200 μM rhodamine WT-CoA synthesized as described previously^33 with 1 μM Sfp in 50 mM HEPES pH 7.5 and 10 mM MgCl2 for 2 hours at 37° C.\nRhodamine-labeled FITC-Ybbr as well as standard 1:1 apo-FITC-ybbR:rhodamine-CoA was subjected to an 11-point serial dilution in 50 mM TrisCl pH 8.0 to achieve final concentrations of 400-0.4 μM. […] Total reaction volumes were 50 μL and utilized a 96-well Costar 3694 plate (Corning, Lowell, Mass.). Following mixing, reactions were centrifuged for 2 minutes at 1500 rpm, and incubated at 37° C. over 4 hours in a HTS 7000 plus Bioassay Reader (Perkin Elmer, Waltham, Mass.) in kinetic mode. Comparison of enzyme reactions to buffer blank and 1:1 apo-FITC-ybbR:rhodamine-CoA standard allowed calculation of product formation and determination of Michaelis-Menten kinetics using GraphPad Prism."}, "M. tuberculosis MAS": {"system": "M. tuberculosis MAS", "experiment": "AcpH qualitative CP activity, gel-based, crypto-CP", "assay_type": "biochemical", "conditions": "FAS (FAS/PKS hybrid), overnight, 37° C., 1 μM AcpH"}, "P. falciparum ACP": {"system": "P. falciparum ACP", "experiment": "AcpH qualitative CP activity, gel-based, crypto-CP", "assay_type": "biochemical", "conditions": "FAS; crypto-CP (coumarin-PPant), overnight, 37° C., 1 μM AcpH", "procedure": "as §1, §2"}, "E. coli ACP (AcpP)": {"target": "E. coli ACP (AcpP) (Escherichia coli, UniProt P0A6A8)", "conditions": "SDS-PAGE", "procedure": "50 mL LB media supplemented with 25 μM calcium D-pantothenate, 50 mM D-glucose, and 50 μg/mL kanamycin utilized previously. Media was inoculated with 1 mL of overnight DK554 starter culture and grown to OD=0.4. IPTG was added at a concentration of 1 mM to the media and was shaken for 5 hours at 37° C. Media was centrifuged at 4000 rpm at 4° C. for 30 minutes to pellet cells. Cell pellets were resuspended in 25 mM TrisCl pH 7.5, 250 mM NaCl, 0.1 mg/mL lysozyme, 10 μM pepstatin, 10 μM leupeptin and passed twice through a French pressure device at 1000 psi. Removal of coumarin-pantetheine from ACP in 5 mL lysate used 10 μM MBP-AcpH fusion in 600 mL AcpH reaction buffer (50 mM TrisCl, pH 8.0, 100 mM NaCl, 10% glycerol, 15 mM MgCl2, 1 mM MnCl2) within a 3 kDa MWCO dialysis bag at 37° C. overnight.\nE. coli DK554 cell lysate with total protein concentration of approximately 2 mg/mL was added to the volume of premade 10×PPTase reaction buffer (500 mM Na-HEPES, 100 mM MgCl2, pH 7.4) that brought the total reaction concentration to 50 mM Na-HEPES pH 7.4, 10 mM MgCl2, 5 μM of coumarin-CoA, and 2 μM Sfp. […]"}, "V. cholerae VibB": {"target": "T2, V. cholerae VibB (Vibrio cholerae serotype O1, UniProt P0C6D3)", "T2 sequence (P0C6D3 whole entry, looked up)": "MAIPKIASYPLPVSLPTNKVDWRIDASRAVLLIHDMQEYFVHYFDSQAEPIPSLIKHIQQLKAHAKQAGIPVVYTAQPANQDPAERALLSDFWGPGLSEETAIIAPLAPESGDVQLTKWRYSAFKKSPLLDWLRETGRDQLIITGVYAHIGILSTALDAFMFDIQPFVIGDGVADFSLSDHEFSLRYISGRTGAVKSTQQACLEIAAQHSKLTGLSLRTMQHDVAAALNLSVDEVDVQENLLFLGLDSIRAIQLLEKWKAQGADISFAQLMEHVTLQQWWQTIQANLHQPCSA", "conditions": "NRPS; crypto-CP (coumarin-PPant), overnight, 37° C., 1 μM AcpH"}, "[1]": {"system": "ACP fusion proteins (MBP, GFP, Lux-ACP)", "experiment": "AcpH label removal from rhodamine-labeled ACP fusion proteins", "assay_type": "biochemical", "conditions": "N-terminal MBP, C-terminal GFP, N-terminal luciferase (Lux-ACP) fusions", "description": "Purified apo-MBP-PaACP at 200 μM was labeled with 1 mM rhodamine-CoA and 13 μM native Sfp in a reaction volume of 20 μL for 3 hours at 37° C. Purified apo-GFP-ACP at 150 μM was labeled with 1 mM rhodamine-CoA and 7 μM native Sfp in a reaction volume of 35 μL for 3 hours at 37° C. Purified apo-Lux-ACP at 12 μM was labeled with 50 μM rhodamine-CoA and 3 μM native Sfp for 1 hour at 37° C. Fusion ACPs were then re-purified from excess rhodamine-CoA and native Sfp using Ni-NTA resin, and buffer exchanged and concentrated using 10 kDa MWCO 0.5 mL Amicon spin filters (Millipore). Label removal of MBP-ACP and GFP-ACP proceeded with 4 μL of the concentrated crypto-fusion ACPs with 10 μM AcpH in 10 μL of AcpH reaction buffer for 3 hours at 37° C. 6 μM crypto-Lux-ACP was reacted with 5 μM AcpH for 3 hours at 37° C. AcpH reaction samples were run immediately afterwards on Urea-PAGE (MBP-ACP and GFP-ACP) or SDS-PAGE (Lux-ACP) with no further purification."}, "P. syringae SyrB1": {"target": "P. syringae SyrB1 (Pseudomonas syringae pv. syringae, UniProt Q52400)", "experiment": "AcpH qualitative CP activity, gel-based, crypto-CP", "assay_type": "biochemical", "conditions": "NRPS; crypto-CP (coumarin-PPant), overnight, 37° C., 1 μM AcpH", "procedure": "(§3) Unless otherwise noted, all coumarin-PPant labeling proceeded as follows: apo-carrier protein or peptide at 50-200 μM were labeled in 50 mM Na-HEPES pH 7.5, 10 mM MgCl2, 8 mM ATP, 0.1 μM MBP-CoaA/D/E, 0.1 μM native Sfp, and 1.1 equivalents of coumarin-pantetheine at 37° C. overnight. Crypto-protein samples were repurified using standard IMAC techniques in pH 8 lysis buffer with Ni-NTA resin, and spin-concentrated/buffer exchanged to remove imidazole and concentrate with 0.5 mL 3 kDa MWCO cellulose filters.\n(§4) Following AcpH treatment, an equal volume of 2×SDS-PAGE loading dye was added to crypto-carrier proteins samples and heated 5 min at 90° C., and run on 12% or 15% SDS-PAGE. Gels were fixed in 50/40/10% water/methanol/acetic acid for 30 minutes, and washed with water three times before UV imaging. Holo-carrier protein reactions were analyzed with Urea-PAGE as previously described.^6 All protein gels were Coomassie stained for evaluating total protein."}, "L majuscula JamC": {"target": "T3, L majuscula JamC (Moorena producens, UniProt Q6E7K7)", "T3 construct": "made in house", "experiment": "AcpH qualitative CP activity, gel-based, crypto-CP", "assay_type": "biochemical", "conditions": "PKS; crypto-CP (coumarin-PPant), overnight, 37° C., 1 μM AcpH", "procedure": "as §3, §4"}, "S. coelicolor ActACP": {"target": "T4, S. coelicolor ActACP (Streptomyces coelicolor, UniProt Q02054)", "T4 construct": "made in house", "T4 sequence (Q02054 whole entry, looked up)": "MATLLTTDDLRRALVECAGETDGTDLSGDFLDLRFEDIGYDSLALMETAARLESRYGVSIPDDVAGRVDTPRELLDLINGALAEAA", "experiment": "AcpH qualitative CP activity, gel-based, crypto-CP", "assay_type": "biochemical", "conditions": "PKS; crypto-CP (coumarin-PPant), overnight, 37° C., 1 μM AcpH", "procedure": "as §1, §2"}}, "data": [{"molecule": "B1", "values": [{"measurement": "AcpH activity with modified ybbR peptide", "setting": "YbbR13; YbbR13: N-term 6xHis, C-term GFP", "value": "no"}, {"measurement": "AcpH activity with modified ybbR peptide", "setting": "YbbR13; YbbR13: N-term FITC, C-term N/A", "value": "no"}, {"measurement": "AcpH activity with modified ybbR peptide", "setting": "YbbR13; YbbR13: N-term GFP, C-term 6xHis", "value": "no"}, {"measurement": "AcpH activity with modified ybbR peptide", "setting": "YbbR13; YbbR13 free peptide: N-term N/A, C-term N/A", "value": "no"}, {"measurement": "AcpH qualitative CP activity", "setting": "A. orientalis CepK", "value": "no"}, {"measurement": "AcpH qualitative CP activity", "setting": "G. fujikuroi Pks4", "value": "no"}, {"measurement": "AcpH qualitative CP activity", "setting": "L majuscula JamF", "value": "no"}, {"measurement": "AcpH qualitative CP activity", "setting": "S. oneidensis AcpP", "value": "YES^†"}, {"measurement": "Km", "setting": "crypto-FITC-YbbR (3)", "value": 177, "unit": "µM"}, {"measurement": "Vmax", "setting": "crypto-FITC-YbbR (3)", "value": "0.008 ± 0.016", "unit": "min⁻¹"}, {"measurement": "kcat", "setting": "crypto-FITC-YbbR (3)", "value": "0.00013 ± 0.000267", "unit": "s⁻¹"}, {"measurement": "AcpH qualitative CP activity", "setting": "M. tuberculosis MAS", "value": "no"}, {"measurement": "AcpH qualitative CP activity", "setting": "P. falciparum ACP", "value": "YES"}, {"measurement": "removal of coumarin-PPT from ACP", "setting": "E. coli ACP (AcpP); coumarin-labeled E. coli DK554 lysate, 254 nm", "value": "uniformly removed"}, {"measurement": "removal of rhodamine label from ACP", "setting": "E. coli ACP (AcpP); rhodamine-labeled ACP, 532 nm", "value": "can also be removed"}, {"measurement": "AcpH qualitative CP activity", "setting": "V. cholerae VibB", "value": "no"}, {"measurement": "removal of rhodamine-PPT from ACP fusion proteins", "setting": "[1]", "value": "removed rhodamine-PPT"}, {"measurement": "AcpH qualitative CP activity", "setting": "P. syringae SyrB1", "value": "no"}, {"measurement": "AcpH qualitative CP activity", "setting": "L majuscula JamC", "value": "YES"}, {"measurement": "AcpH qualitative CP activity", "setting": "S. coelicolor ActACP", "value": "no"}]}]}
